Results published in the supplement of paper PMC10567573.

B1: LOXL2 (parent)
chain: HISSCKLGPQVSLDPMKNVTCENG

Variants of: B1
Assay: protein stability index of a GFP-peptide fusion (GPS, HEK-293T) (PSI 1-6); higher = more stable
Settings: c terminus: a fixed tail appended
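Also: lentivirally expressed fusions sorted by FACS into six bins by GFP to DsRed ratio, PSI derived from sequencing read proportions per bin multiplied by bin number.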

Protein stability index: each site, then its substitutions
V19: P 4.2, D 4.67, A 4.32, L 3.77, S 4.38, Y 3.76, W 2.99, F 2.95, M 3.55, E 4.44, Q 4.08, G 4.15, I 3.59, T 3.71, N 4.57, H 3.89, C 3.86, K 4.13, R 4.26
T20: L 4.37, N 4.13, H 3.85, C 3.37, K 4.26, D 4.4, W 2.31, P 4.26, R 3.88, F 2.48, Q 4.02, A 3.99, I 3.84, M 3.64, S 4.08, V 3.83, G 3.87, E 4.16, Y 3.58
C21: T 4.08, P 4.17, E 4.92, K 4.06, Q 3.86, R 3.94, M 3.61, D 4.79, L 3.88, S 4.63, F 3.65, H 4.03, A 4.41, G 4.05, N 4.14, I 3.53, Y 3.36, V 4.1, W 3.75
K17: I 3.3, E 4.28, C 3.63, H 4.03, A 3.98, L 3.77, D 4.66, S 4.02, W 3.05, F 2.97, Y 3.44, N 4.3, T 4.19, V 3.67, M 3.22, Q 3.81, P 4.01, G 3.45, R 3.55
D14: W 2.14, Q 3.58, R 3.33, S 3.65, V 3.69, P 3.78, Y 2.8, T 3.62
P15: W 3.08, H 4.02, I 3.41, N 4.11, A 3.86, F 3.04, M 3.74, D 4.19, V 3.88, R 3.82, C 3.43, S 3.94, Y 2.84, G 3.93, Q 4.03, K 3.93, T 4.14, L 3.62, E 4.64
N18: W 2.88, Y 3.08, R 3.44, D 4.34, H 3.81, V 3.78, A 3.76, K 4.19, P 3.92, L 3.12, S 3.2, F 2.82, M 3.42, C 3.11, G 3.81, Q 4.2, E 3.82, T 3.89, I 3.4
M16: N 4.61, V 4.34, Q 4.43, H 4.11, T 4.04, S 4.23, W 2.86, E 5.1, Y 3.86, A 4.15, G 4.22, F 3.74, R 4.47, I 3.68, P 4.16, K 4.5, C 3.94, D 4.75, L 3.78
N23: C 4.01, A 3.53, D 4.38, H 3.61, G 3.85, E 4.63, F 2.93
E22: A 3.51, P 3.47, C 3.22, G 3.17, T 3.23, Q 3.47, I 2.92, K 3.89, M 2.9, V 3, F 2.46, D 3.82, N 3.35, R 3.5, S 3.5, W 2.09, L 2.58, Y 2.44, H 3.18
